Tests used:
[1] = target: LGR4-ECD (LGR4 ectodomain) (human, UniProt Q9BXB1); experiment: BLI
[2] = target: T1, Norrin-Fc (human Norrin K25-S133, HRV 3C site, human IgG1 Fc, C-terminal FLAG) (human), Q00604; experiment: cryo-EM structure; settings: remark: other sources report otherwise
T1 chain: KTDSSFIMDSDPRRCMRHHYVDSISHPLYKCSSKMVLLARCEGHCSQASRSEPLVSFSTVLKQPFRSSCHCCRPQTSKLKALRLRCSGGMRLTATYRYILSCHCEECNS

[3] = target: Human LGR4 (residues A25-Q833), C-terminal Flag tag (human, UniProt Q9BXB1 25-833); experiment: cryo-EM structure

B1: NB18 (VHH)
VHH: QVQLQESGGGSVQAGGSLRLSCAASGYTYSRTCMAWFRQAPGKEREGIATINSDGTTTYADSVKGRFTISRDNAKNTLSLQMNSLKPEDTAMYYCAAASLSTRGCSRAEWEYRYWGQGTQVTVSS
- Kd [1]: 150 pM

B2: Norrin-Fc (human Norrin K25-S133, HRV 3C site, human IgG1 Fc, C-terminal FLAG), Q00604 25-133 (Fc fusion)
chain: T1 chain
- stoichiometry N [2]: 2

B3: Norrin-Fc (human Norrin K25-S133, HRV 3C site, human IgG1 Fc, C-terminal FLAG) (Fc fusion)
chain: T1 chain
- stoichiometry N [3]: 1 Norrin chains per LGR4 (2:2)

Source: article PMC12234955 (Nature Communications, 2025)
